Measurements published in paper PMC4920195, “Non-Smc element 5 (Nse5) of the Smc5/6 complex interacts with SUMO pathway components” (Biology Open, 2016).
Where a chain is given by its changes, count along the chain named. Each block holds one molecule with its values, some of them ahead of it.

Columns and labels:
Test in all cases: two-hybrid; LexA bait and B42 activating domain prey, galactose-induced; liquid culture, quantitative beta-galactosidase activity of permeabilized cells with reporter pSH18034, wild-type cells (JC470)
[1] = molecular target: Nse5-ts2-LexA (S. cerevisiae) (UniProt Q03718)
Nse5-H319Y-LexA = molecular target: T1, Nse5-H319Y-LexA (S. cerevisiae, UniProt Q03718 1-556, H319Y); settings: partners not purified
T1 construct: Nse5 of Saccharomyces cerevisiae, point mutant; also called J-120; source: yeast two-hybrid fusion, galactose-inducible promoter, in S. cerevisiae
T1 sequence (looked up): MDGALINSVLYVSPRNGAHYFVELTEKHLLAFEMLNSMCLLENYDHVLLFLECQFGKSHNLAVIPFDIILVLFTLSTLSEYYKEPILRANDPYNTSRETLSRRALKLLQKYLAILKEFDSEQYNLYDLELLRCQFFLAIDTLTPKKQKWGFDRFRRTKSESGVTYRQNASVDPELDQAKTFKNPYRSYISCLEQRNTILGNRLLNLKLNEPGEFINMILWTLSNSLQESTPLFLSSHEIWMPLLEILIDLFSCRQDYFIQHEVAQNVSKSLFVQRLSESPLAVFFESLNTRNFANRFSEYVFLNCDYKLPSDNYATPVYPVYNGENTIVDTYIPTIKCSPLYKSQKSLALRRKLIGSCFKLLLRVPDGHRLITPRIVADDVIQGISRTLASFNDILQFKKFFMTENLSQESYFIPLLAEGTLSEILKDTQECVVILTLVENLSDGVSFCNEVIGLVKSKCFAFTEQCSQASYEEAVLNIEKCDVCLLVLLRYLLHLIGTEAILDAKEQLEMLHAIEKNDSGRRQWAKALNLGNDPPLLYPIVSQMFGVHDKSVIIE

Nse5-Y111H-LexA = molecular target: T2, Nse5-Y111H-LexA (S. cerevisiae, UniProt Q03718 1-556, Y111H); settings: partners not purified
T2 construct: Nse5 of Saccharomyces cerevisiae, point mutant; also called J-132; source: yeast two-hybrid fusion, galactose-inducible promoter, in S. cerevisiae
T2 sequence (looked up): T1 sequence (looked up) with Y111H, Y319H

Nse5-Y123H-LexA = molecular target: T3, Nse5-Y123H-LexA (S. cerevisiae, UniProt Q03718 1-556, Y123H); settings: partners not purified
T3 construct: Nse5 of Saccharomyces cerevisiae, point mutant; also called J-131; source: yeast two-hybrid fusion, galactose-inducible promoter, in S. cerevisiae
T3 sequence (looked up): T1 sequence (looked up) with Y123H, Y319H

Nse5-LexA (wild type) = molecular target: T4, Nse5-LexA (wild type) (S. cerevisiae, UniProt Q03718 1-556); settings: partners not purified
T4 construct: Nse5 of Saccharomyces cerevisiae, NSE5 gene cloned into a pEG202-derived bait plasmid; also called Non-Smc element 5; J-038; source: yeast two-hybrid fusion, galactose-inducible promoter, in S. cerevisiae
T4 sequence (looked up): T1 sequence (looked up) with Y319H

two-hybrid signal as percent of wild-type Nse5 [1]: 63%
Molecule: Nse6-AD (natural protein)

two-hybrid signal as percent of wild-type Nse5 (Nse5-H319Y-LexA): 40%
two-hybrid signal as percent of wild-type Nse5 (Nse5-Y111H-LexA): 18%
two-hybrid signal as percent of wild-type Nse5 (Nse5-Y123H-LexA): 75%
B1: Smt3-AD (natural protein, S. cerevisiae, UniProt Q12306 1-101, looked up)
chain: MSDSEVNQEAKPEVKPEVKPETHINLKVSDGSSEIFFKIKKTTPLRRLMEAFAKRQGKEMDSLRFLYDGIRIQADQTPEDLDMEDNDIIEAHREQIGGATY
notes: Smt3 (SUMO) of Saccharomyces cerevisiae, SMT3 cloned into a pJG4-6-derived prey vector; also called SUMO; J-043; source: yeast two-hybrid fusion, galactose-inducible promoter, in S. cerevisiae

two-hybrid signal as fold of the interactions with Siz1 and Siz2 (Nse5-LexA (wild type)): ~5 fold
B2: Ubc9-AD (wild type) (enzyme, S. cerevisiae, UniProt P50623 1-157, looked up)
chain: MSSLCLQRLQEERKKWRKDHPFGFYAKPVKKADGSMDLQKWEAGIPGKEGTNWAGGVYPITVEYPNEYPSKPPKVKFPAGFYHPNVYPSGTICLSILNEDQDWRPAITLKQIVLGVQDLLDSPNPNSPAQEPAWRSFSRNKAEYDKKVLLQAKQYSK
notes: Ubc9 of Saccharomyces cerevisiae, UBC9 cloned into a pJG4-6-derived prey vector; also called E2 conjugating enzyme; J-042; source: yeast two-hybrid fusion, galactose-inducible promoter, in S. cerevisiae
